We go through five molecules from patent publication US20070202103A1 (EMD LEXIGEN RESEARCH CENTER, published 2007).

“And” between values parts separate entries of the source, which are not always exact repeats. Equal values may be shown once.

Assay [1] deals with polypeptide including human fibronectin domains 7, ED-B, 8, and 9 (human) (UniProt P02751). Put plainly: SPR. For orientation: In SPR one partner is held on a chip, and binding of the other changes the refractive index at the surface.
polypeptide including human fibronectin domains 7, ED-B, 8, and 9 (human), sequence (P02751 1173-1538 limits assumed): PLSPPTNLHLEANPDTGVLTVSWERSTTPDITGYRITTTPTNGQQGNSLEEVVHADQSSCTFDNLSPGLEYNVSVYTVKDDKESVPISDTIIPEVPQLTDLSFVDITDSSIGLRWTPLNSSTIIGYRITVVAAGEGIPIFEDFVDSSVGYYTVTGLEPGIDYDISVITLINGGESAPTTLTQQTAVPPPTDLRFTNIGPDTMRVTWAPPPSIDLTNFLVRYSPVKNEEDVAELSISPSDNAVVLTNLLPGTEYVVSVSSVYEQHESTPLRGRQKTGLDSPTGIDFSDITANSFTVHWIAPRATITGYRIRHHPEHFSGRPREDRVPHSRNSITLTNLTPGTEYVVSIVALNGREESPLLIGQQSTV
Assay [2] shares this target. Put plainly: SPR, experiment 2.
Assay [3] concerns the target recombinant oncofoetal fibronectin FN7B89 (Fn MRGS-7B89-HHHHHH) (human). Put plainly: SPR kinetics, FN7B89 on chip, bivalent fit.
Assay [4] deals with polypeptide including human fibronectin domains 7, ED-B, 8, and 9 (human) (UniProt P02751). Put plainly: SPR, experiment 1.
Assay [5] has the same target. The experiment in a line: SPR, against huBC1.
The target is the same in assay [6]. The experiment in a line: SPR, experiment 1; exp. 1.
The target is the same in assay [7]. The experiment in a line: SPR, experiment 2; exp. 2.
Assay [8] addresses recombinant oncofoetal fibronectin FN7B89 (Fn MRGS-7B89-HHHHHH) (human). The experiment in a line: SPR kinetics, against muBC1.
Assay [9] deals with T1, polypeptide including human fibronectin domains 7, ED-B, 8, and 9 (human, UniProt P02751 1173-1538, limits assumed).
T1 construct: domain: fibronectin domains 7, ED-B, 8, and 9
T1 sequence (P02751 1173-1538 limits assumed): as above
The experiment in a line: SPR, experiment 1.

In assay [10] the target is T1, polypeptide including human fibronectin …. Put plainly: SPR, experiment 2.
The target is the same in assay [11]. The experiment in a line: SPR, experiment 1; exp. 1.
Assay [12] shares this target. Put plainly: SPR, experiment 2; exp. 2.

The koff is the rate constant with which the complex falls apart. One may read the kon as the second-order rate constant of association.

In the case of “muBC1 (murine constant regions) (antibody)”, the Kd in assay [1] was found to be 686 nM. In [2], this molecule registered a koff of 0.0011 s⁻¹ and a kon of 1650 M⁻¹ s⁻¹. Moreover, in assay [3], the Kd was determined as 377 nM, the koff was 0.00065 s⁻¹ and the on-rate constant (kon) was 1700 M⁻¹ s⁻¹.

For “huBC1-muIL12 (HuBC1-g1-M1-muIL12) (from UniProt P43431 23-215; P43432 23-335)”, in assay [3], the Kd turned out to be 13.9 nM, the koff came out at 0.00109 s⁻¹ and the kon was 79500 M⁻¹ s⁻¹.

On to “huBC1-huIL12 (humanised BC1 antibody-human IL12 fusion protein) (from UniProt P29460 23-328)”, for which, in [3], the Kd stood at 17.3 nM, the koff is 0.00087 s⁻¹ and the kon came to 50900 M⁻¹ s⁻¹.

B1: huBC1-IL12 (BC1-IL12 fusion protein of Example 2) (protein, part only; not given: constant regions and IL-12 subunits, not shown: a dimerising Fc or GST)
heavy, part: EVQLVQSGADVKKPGASVKVSCKASGYTFTNYVMHWVRQAPGQGLEWLGYINPYNDGTQYNERFKGRVTMTGDTSISTAYMELSRLTSDDTAVYYCAREVYGNYIWGNWGQGTLVSVSS
light: EIVLTQSPGTLSLSPGERATLSCSASSSISSNYLHWYQQKPGQAPRLLIYRTSNLASGIPDRFSGSGSGTDFTLTISRLEPEDFAVYYCQQGSSIPFTFGQGTKLEIKRTVAAPSVFIFPPSDEQLKSGTASVVCLLNNFYPREAKVQWKVDNALQSGNSQESVTEQDSKDSTYSLSSTLTLSKADYEKHKVYACEVTHQGLSSPVTKSFNRGEC
As for B1, the koff is 0.0013 s⁻¹ in assay [4] and 0.0016 s⁻¹ in assay [2]. In addition, the kon in [4] was 17000 M⁻¹ s⁻¹; in assay [2], 19000 M⁻¹ s⁻¹. Also, the fold tighter binding than the huBC1 antibody alone in assay [5] is > 10 fold and 16 fold. The Kd amounted to 7.6 nM in assay [6] and 8.3 nM in [7].

B2: huBC1 (humanised BC1 antibody, human constant regions) (antibody, V domains shown)
VH: B1 heavy, part
VL: EIVLTQSPGTLSLSPGERATLSCSASSSISSNYLHWYQQKPGQAPRLLIYRTSNLASGIPDRFSGSGSGTDFTLTISRLEPEDFAVYYCQQGSSIPFTFGQGTKLEIK
notes: Only variable domains are tied to the unfused antibody; also called huBC1 antibody; HuBC1 Ab
With B2, in assay [8], the fold faster off-rate than muBC1 came to 5 fold. Further, the fold faster on-rate than muBC1 in assay [8] is 34 fold. Besides, the values for the off-rate constant (koff) in assay [9], in assay [10] and in [3] were 0.0078 s⁻¹, 0.01 s⁻¹ and 0.00312 s⁻¹, respectively. Also, the association rate constant (kon) in assay [9] came out at 62000 M⁻¹ s⁻¹; in assay [10], 73000 M⁻¹ s⁻¹; in assay [3], 57600 M⁻¹ s⁻¹. Besides, the results for the Kd in assay [11], in assay [12] and in assay [3] were 125 nM, 138 nM and 54 nM, respectively.
